Experimental data published in patent US20240270821A1, “GIP/GLP1/GCG TRI-RECEPTOR AGONISTS AND USES THEREOF” (priority 2023, published 2024).
Positions count from the first letter of the chain named.

T1: human GIP receptor (human) (UniProt P48546)
T1 sequence (looked up): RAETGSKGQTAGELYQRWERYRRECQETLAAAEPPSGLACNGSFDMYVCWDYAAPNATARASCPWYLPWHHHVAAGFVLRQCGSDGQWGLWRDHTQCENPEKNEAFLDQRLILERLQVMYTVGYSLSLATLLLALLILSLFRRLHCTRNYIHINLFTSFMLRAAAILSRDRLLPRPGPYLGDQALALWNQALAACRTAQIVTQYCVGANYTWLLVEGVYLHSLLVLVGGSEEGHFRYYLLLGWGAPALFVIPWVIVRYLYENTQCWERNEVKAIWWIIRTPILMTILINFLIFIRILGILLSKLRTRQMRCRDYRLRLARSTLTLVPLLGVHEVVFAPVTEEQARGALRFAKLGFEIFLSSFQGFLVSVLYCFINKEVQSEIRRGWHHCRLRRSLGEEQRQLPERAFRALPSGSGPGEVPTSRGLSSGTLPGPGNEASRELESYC

B1: Example 779 (peptide)
chain: YXQGTFTSDFSQXLDKKAQXAFIEYLLEAGPSSXAPPPSGT
modifications: synthetic construct; SITE 2: note = 2-Aminoisobutyric Acid; SITE 13: note = alpha-methyl-leucine; SITE 17: note = Lysine is chemically modified through conjugation of the epsilon-amino group of the Lysine side chain with (2-[2-(2-Amino-ethoxy)-ethoxy]-acetyl)-(gamma-Glu)-CO-(CH2) 16-CO2H; SITE 20: n
B2: Example 796 (peptide)
chain: B1 chain with Q12X, L27I, A29X, X34G, T41S
modifications: synthetic construct; SITE 2: note = 2-Aminoisobutyric Acid; SITE 12: note = L-ornithine; SITE 13: note = alpha-methyl-leucine; SITE 17: note = Lysine is chemically modified through conjugation of the epsilon-amino group of the Lysine side chain with (2-[2-(2-Amino-ethoxy)-ethoxy]-acetyl)-(gamma-Glu)
B3: Example 795 (peptide)
chain: B1 chain with L27I, A29G, P31E, X34G, T41S
modifications: synthetic construct; SITE 2: note = 2-Aminoisobutyric Acid; SITE 13: note = alpha-methyl-leucine; SITE 17: note = Lysine is chemically modified through conjugation of the epsilon-amino group of the Lysine side chain with (2-[2-(2-Amino-ethoxy)-ethoxy]-acetyl)-(gamma-Glu)-CO-(CH2) 16-CO2H; SITE 20: n
B4: Example 820 (peptide)
chain: B1 chain with F10X, X34G, T41S
modifications: synthetic construct; SITE 2: note = 2-Aminoisobutyric Acid; SITE 10: note = 3-(4-Pyridyl)-L-alanine; SITE 13: note = alpha-methyl-leucine; SITE 17: note = Lysine is chemically modified through conjugation of the epsilon-amino group of the Lysine side chain with (2-[2-(2-Amino-ethoxy)-ethoxy]-acetyl)
B5: Example 799 (peptide)
chain: B1 chain with Q12X, L27I, A29X, X34G, T41S
modifications: synthetic construct; SITE 2: note = 2-Aminoisobutyric Acid; SITE 12: note = (S)-2,4-diaminobutanoic acid; SITE 13: note = alpha-methyl-leucine; SITE 17: note = Lysine is chemically modified through conjugation of the epsilon-amino group of the Lysine side chain with (2-[2-(2-Amino-ethoxy)-ethoxy]-ac)
B6: Example 875 (SEQ ID NO: 881) (peptide)
chain: B1 chain with L27I, E28A, A29G, X34G, T41S
modifications: synthetic construct; SITE 2: note = 2-Aminoisobutyric Acid; SITE 13: note = alpha-methyl-leucine; SITE 17: note = Lysine is chemically modified through conjugation of the epsilon-amino group of the Lysine side chain with (2-[2-(2-Amino-ethoxy)-ethoxy]-acetyl)-(gamma-Glu)-CO-(CH2) 16-CO2H; SITE 20: n
B7: Example 790 (peptide)
chain: B1 chain with A29X, P31E, X34G, A35E, T41E
modifications: synthetic construct; SITE 2: note = 2-Aminoisobutyric Acid; SITE 13: note = alpha-methyl-leucine; SITE 17: note = Lysine is chemically modified through conjugation of the epsilon-amino group of the Lysine side chain with (2-[2-(2-Amino-ethoxy)-ethoxy]-acetyl)-(gamma-Glu)-CO-(CH2) 16-CO2H; SITE 20: n
B8: Example 77 (peptide)
chain: B1 chain with Q12R, E28A, A29G, X34G, T41S
modifications: synthetic construct; SITE 2: note = 2-Aminoisobutyric Acid; SITE 13: note = alpha-methyl-leucine; SITE 17: note = Lysine is chemically modified through conjugation of the epsilon-amino group of the Lysine side chain with (2-[2-(2-Amino-ethoxy)-ethoxy]-acetyl)-(gamma-Glu)-CO-(CH2) 18-CO2H; SITE 20: n
B9: Example 876 (SEQ ID NO: 882) (peptide)
chain: B1 chain with L27I, E28A, A29G, X34G, T41S
modifications: not fully specified; synthetic construct; SITE 2: note = 2-Aminoisobutyric Acid; SITE 13: note = alpha-methyl-leucine; SITE 17: note = Lysine is chemically modified through conjugation of the epsilon-amino group of the Lysine side chain with (gamma-Glu)2-CO-(CH2)16-CO2H; SITE 20: note = 3-(4-Pyridyl)-L-alanine; SITE 41:
B10: Example 822 (peptide)
chain: B1 chain with F10X, X34G, T41X
modifications: synthetic construct; SITE 2: note = 2-Aminoisobutyric Acid; SITE 10: note = 3-(4-Pyridyl)-L-alanine; SITE 13: note = alpha-methyl-leucine; SITE 17: note = Lysine is chemically modified through conjugation of the epsilon-amino group of the Lysine side chain with (2-[2-(2-Amino-ethoxy)-ethoxy]-acetyl)
B11: Example 797 (peptide)
chain: B1 chain with Q12K, L27I, A29X, X34G, T41S
modifications: synthetic construct; SITE 2: note = 2-Aminoisobutyric Acid; SITE 13: note = alpha-methyl-leucine; SITE 17: note = Lysine is chemically modified through conjugation of the epsilon-amino group of the Lysine side chain with (2-[2-(2-Amino-ethoxy)-ethoxy]-acetyl)-(gamma-Glu)-CO-(CH2) 16-CO2H; SITE 20: n
B12: Example 824 (peptide)
chain: B1 chain with F10X
modifications: C-terminal amide; acylated; synthetic construct; SITE 2: note = 2-Aminoisobutyric Acid; SITE 10: note = 3-(4-Pyridyl)-L-alanine; SITE 13: note = alpha-methyl-leucine; SITE 17: note = Lysine is chemically modified through conjugation of the epsilon-amino group of the Lysine side chain with (2-[2-(2-Amino-ethoxy)-ethoxy]-acetyl)
B13: Example 788 (peptide)
chain: B1 chain with A29X, P31E, X34G, A35E, T41S
modifications: synthetic construct; SITE 2: note = 2-Aminoisobutyric Acid; SITE 13: note = alpha-methyl-leucine; SITE 17: note = Lysine is chemically modified through conjugation of the epsilon-amino group of the Lysine side chain with (2-[2-(2-Amino-ethoxy)-ethoxy]-acetyl)-(gamma-Glu)-CO-(CH2) 16-CO2H; SITE 20: n
B14: Example 800 (peptide)
chain: B1 chain with Q12X, L27I, A29X, X34G, T41S
modifications: synthetic construct; SITE 2: note = 2-Aminoisobutyric Acid; SITE 12: note = (S)-2,3-diaminopropanoic acid; SITE 13: note = alpha-methyl-leucine; SITE 17: note = Lysine is chemically modified through conjugation of the epsilon-amino group of the Lysine side chain with (2-[2-(2-Amino-ethoxy)-ethoxy]-a)
B15: Example 823 (peptide)
chain: B1 chain with F10X, X34G
modifications: synthetic construct; SITE 2: note = 2-Aminoisobutyric Acid; SITE 10: note = 3-(4-Pyridyl)-L-alanine; SITE 13: note = alpha-methyl-leucine; SITE 17: note = Lysine is chemically modified through conjugation of the epsilon-amino group of the Lysine side chain with (2-[2-(2-Amino-ethoxy)-ethoxy]-acetyl)

target: hGLP-1R (Homo sapiens, UniProt P43220); assay: cell-based or functional assay
Sequence (P43220 24-463): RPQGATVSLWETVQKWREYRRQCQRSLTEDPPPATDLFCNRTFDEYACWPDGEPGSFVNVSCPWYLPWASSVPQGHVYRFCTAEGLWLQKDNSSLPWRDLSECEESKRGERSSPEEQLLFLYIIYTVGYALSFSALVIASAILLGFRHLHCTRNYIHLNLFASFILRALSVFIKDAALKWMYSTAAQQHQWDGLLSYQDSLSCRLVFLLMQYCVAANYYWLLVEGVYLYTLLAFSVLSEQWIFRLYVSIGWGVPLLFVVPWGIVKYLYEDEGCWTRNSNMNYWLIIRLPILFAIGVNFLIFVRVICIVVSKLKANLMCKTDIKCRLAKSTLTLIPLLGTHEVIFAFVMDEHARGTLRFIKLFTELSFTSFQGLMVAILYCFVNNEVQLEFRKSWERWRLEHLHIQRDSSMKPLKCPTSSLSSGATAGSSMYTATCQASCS

Binder | Relative cAMP EC50 | cAMP Rel EC50, nM (1% HSA) | cAMP Rel EC50 (1% HSA) | cAMP Rel EC50 | cAMP Rel EC50, nM (in the presence of 1% HSA)
B1 | 0.949 nM | 175 nM | – | – | –
B2 | 0.602 nM | 125 nM | – | – | –
B3 | 0.972 nM | 221 nM | – | – | –
B4 | 2.78 nM | – | 299 nM | – | –
B5 | 0.462 nM | – | 179 nM | – | –
B6 | – | – | – | 78.6 nM | –
B7 | 3.19 nM | 858 nM | – | – | –
B8 | 1.85 nM | – | – | – | 339 nM
B9 | – | – | – | 70 nM | –
B10 | 2.51 nM | – | 322 nM | – | –
B11 | 0.449 nM | – | 102 nM | – | –
B12 | 2.43 nM | – | 343 nM | – | –
B13 | 2.5 nM | 528 nM | – | – | –
B14 | 0.486 nM | – | 164 nM | – | –
B15 | 2.96 nM | – | 421 nM | – | –

target: T1, human GIP receptor (human); assay: cell-based or functional assay

Binder | Relative cAMP EC50 | cAMP Rel EC50, nM (1% HSA) | cAMP Rel EC50 (1% HSA) | cAMP Rel EC50 | cAMP Rel EC50, nM (in the presence of 1% HSA)
B1 | 0.112 nM | 19.3 nM | – | – | –
B2 | 0.098 nM | 17.5 nM | – | – | –
B3 | 0.345 nM | 67.3 nM | – | – | –
B4 | 0.121 nM | – | 17.5 nM | – | –
B5 | 0.0668 nM | – | 18.4 nM | – | –
B6 | – | – | – | 13.8 nM | –
B7 | 0.131 nM | 34.1 nM | – | – | –
B8 | 0.168 nM | – | – | – | 37.9 nM
B9 | – | – | – | 7.94 nM | –
B10 | 0.186 nM | – | 18.1 nM | – | –
B11 | 0.0781 nM | – | 16.7 nM | – | –
B12 | 0.123 nM | – | 28.9 nM | – | –
B13 | 0.0923 nM | 20.7 nM | – | – | –
B14 | 0.283 nM | – | 40.2 nM | – | –
B15 | 0.171 nM | – | 25.6 nM | – | –

target: human glucagon receptor (human) (UniProt P47871); assay: cell-based or functional assay
Sequence (P47871 26-477): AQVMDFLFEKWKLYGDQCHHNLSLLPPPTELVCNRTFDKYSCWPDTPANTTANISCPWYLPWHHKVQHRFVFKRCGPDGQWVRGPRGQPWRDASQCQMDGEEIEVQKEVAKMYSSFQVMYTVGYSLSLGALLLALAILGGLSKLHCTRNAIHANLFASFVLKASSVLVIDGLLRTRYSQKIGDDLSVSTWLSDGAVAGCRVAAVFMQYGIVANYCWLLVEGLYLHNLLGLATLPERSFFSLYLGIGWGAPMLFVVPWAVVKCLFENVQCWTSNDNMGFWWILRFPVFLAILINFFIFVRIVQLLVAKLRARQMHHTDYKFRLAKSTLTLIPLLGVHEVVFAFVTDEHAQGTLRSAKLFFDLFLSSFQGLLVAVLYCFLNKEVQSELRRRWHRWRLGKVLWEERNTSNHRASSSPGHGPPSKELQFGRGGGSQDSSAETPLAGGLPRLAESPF

Binder | Relative cAMP EC50 | cAMP Rel EC50, nM (1% HSA) | cAMP Rel EC50 (1% HSA) | cAMP Rel EC50 | cAMP Rel EC50, nM (in the presence of 1% HSA)
B1 | 4.58 nM | 1020 nM | – | – | –
B2 | 5.3 nM | 1000 nM | – | – | –
B3 | 1.77 nM | 566 nM | – | – | –
B4 | 6.83 nM | – | 1270 nM | – | –
B5 | 1.64 nM | – | 574 nM | – | –
B6 | – | – | – | 689 nM | –
B7 | 3.87 nM | 1200 nM | – | – | –
B8 | 15.3 nM | – | – | – | 2610 nM
B9 | – | – | – | 940 nM | –
B10 | 11.6 nM | – | 2100 nM | – | –
B11 | 3.78 nM | – | 963 nM | – | –
B12 | 7.92 nM | – | 1110 nM | – | –
B13 | 3.36 nM | 1420 nM | – | – | –
B14 | 21 nM | – | 2500 nM | – | –
B15 | 7.75 nM | – | 1410 nM | – | –
